Measured values published in publication PMC9536298.

How the values were obtained:
[1] = molecular target: survival motor neuron protein (SMN), endogenous human (human (endogenous in human fibroblasts)) (UniProt Q16637); experiment: co-IP
[2] = molecular target: zinc finger protein ZPR1, endogenous human (human (endogenous in HeLa and human fibroblasts)) (UniProt O75312); experiment: co-IP
Chain of zinc finger protein ZPR1, endogenous human (human (endogenous in HeLa and human fibroblasts)) (O75312 whole entry): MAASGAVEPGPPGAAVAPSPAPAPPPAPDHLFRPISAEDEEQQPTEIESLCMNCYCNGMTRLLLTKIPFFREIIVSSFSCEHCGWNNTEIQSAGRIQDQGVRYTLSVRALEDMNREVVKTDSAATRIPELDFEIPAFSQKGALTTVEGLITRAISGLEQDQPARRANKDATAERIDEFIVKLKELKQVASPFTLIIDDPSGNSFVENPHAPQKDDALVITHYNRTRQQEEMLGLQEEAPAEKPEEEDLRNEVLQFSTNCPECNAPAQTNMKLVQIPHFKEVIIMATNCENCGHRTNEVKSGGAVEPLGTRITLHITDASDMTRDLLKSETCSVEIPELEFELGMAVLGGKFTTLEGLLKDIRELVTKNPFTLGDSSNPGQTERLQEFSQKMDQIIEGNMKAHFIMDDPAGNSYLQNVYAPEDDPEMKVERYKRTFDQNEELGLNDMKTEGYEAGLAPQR

Chain of survival motor neuron protein (SMN), endogenous human (human (endogenous in human fibroblasts)) (Q16637 whole entry): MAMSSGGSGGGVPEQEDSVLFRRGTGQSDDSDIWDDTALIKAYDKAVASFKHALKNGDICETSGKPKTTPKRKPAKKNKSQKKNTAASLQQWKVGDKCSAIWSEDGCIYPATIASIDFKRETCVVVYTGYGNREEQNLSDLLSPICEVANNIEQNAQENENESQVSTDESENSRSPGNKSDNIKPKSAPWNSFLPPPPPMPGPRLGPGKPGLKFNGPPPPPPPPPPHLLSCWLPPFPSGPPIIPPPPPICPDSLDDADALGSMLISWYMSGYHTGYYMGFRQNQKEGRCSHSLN

- co-IP level with ZPR1 in SMA cells, % of normal cells [2]: 44.8%
Substance: senataxin (SETX), endogenous human, Q7Z333 1-2677
- co-IP level with SMN in SMA cells, % of normal cells [1]: 25.8%
